Assay results taken from US20170022281A1 (AbbVie / Abbott, published 2017).
Where a chain is given by its changes, count along the chain named.

T1: cyno PRLR (Biacore antigen) (cyno, UniProt A0A2K5WXK1 25-234)
T1 construct: also called cyPRLR
T1 sequence: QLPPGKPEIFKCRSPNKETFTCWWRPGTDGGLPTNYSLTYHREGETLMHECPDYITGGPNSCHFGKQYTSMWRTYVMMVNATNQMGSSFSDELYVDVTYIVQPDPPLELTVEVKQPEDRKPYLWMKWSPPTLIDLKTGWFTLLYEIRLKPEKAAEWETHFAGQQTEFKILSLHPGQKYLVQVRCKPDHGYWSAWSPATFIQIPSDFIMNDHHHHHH

T2: murine PRLR (Biacore antigen) (murine, UniProt Q08501 20-229, limits assumed)
T2 construct: also called muPRLR
T2 sequence (looked up): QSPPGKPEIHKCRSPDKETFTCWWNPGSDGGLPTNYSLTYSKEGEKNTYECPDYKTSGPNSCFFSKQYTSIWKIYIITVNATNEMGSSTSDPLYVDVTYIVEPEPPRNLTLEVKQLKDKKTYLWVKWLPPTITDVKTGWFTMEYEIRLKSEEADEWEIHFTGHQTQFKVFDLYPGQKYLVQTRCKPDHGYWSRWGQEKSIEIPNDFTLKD

T3: human PRLR (Biacore antigen) (human, UniProt P16471 25-234, limits assumed)
T3 construct: The construct injected over captured antibody is not described (a soluble form is likely); also called huPRLR
T3 sequence: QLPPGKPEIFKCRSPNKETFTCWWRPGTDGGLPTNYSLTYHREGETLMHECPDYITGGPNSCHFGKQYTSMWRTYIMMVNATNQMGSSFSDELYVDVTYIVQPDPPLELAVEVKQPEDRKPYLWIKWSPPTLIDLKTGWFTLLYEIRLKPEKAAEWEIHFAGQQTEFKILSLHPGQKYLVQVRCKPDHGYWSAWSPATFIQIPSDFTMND

B1: chAb8 (antibody, human IgG1, kappa, V domains shown)
VH: EVQLQQSGPELVKPGASVKISCKASGYTFTDYNIHWVKQSHGKSLEWIGYIYPNNDGTGYNQKFKSKATLTVDNSSSTAYMEVRSLTSEDSAVYYCARGDGNYVGDMDYWGQGTSVTVSS
VL: DIQMTQSPASLSASVGETVTITCRASENIYSYLAWYQQKQGKPPQLLVYNAKTLAEGVPSRFSGGGSGTQFSLKINSLQPEDFGSYYCQHHYATPFTFGSGTKLEIKT
notes: chimeric, murine variable and human G1/kappa constant regions
B2: chAb5 (antibody, human IgG1, kappa, V domains shown)
VH: QVQLQQPGAELVRPGTSVKLSCKASGYTFTSFWMHWVKQRPGQGLEWIGVIDPSDTYTNYNQKFKGKATLTVDTSSSTAYMQLSSLTSEDSAVYYCARGDYSNWFTYWGQGTLVTVSA
VL: DVVMTQTPLSLPVSLGDQASISCRSSQRLVHSNGNTYLHWYLQKPGQSPKLLIYKVSNRFSGVPDRFSGSGSGTDFTLKISRVEAEDLGVYFCSQSTHVPWTFGGGTKLEIKT
notes: as for B1
B3: chAb7 (antibody, human IgG1, kappa, V domains shown)
VH: QVQLQQPGAELVMPGTSVKLSCKASGYTFTSYWIHWVKQRPGQGLEWIGEIDPSDSYTNYNQKFKGKATLTVDRSSSTAYMQLSSLTSEDSAVYYCGRSFFTNWFAYWGQGTLVTVSA
VL: B2 VL with R28S, S81N, W101F, G105S
notes: as for B1
B4: chAb6 (antibody, human IgG1, kappa, V domains shown)
VH: QVQLQQPGAELVMPGSSVKLSCKASGYTFTTYWMHWVKQRPGQGLEWIGEIDPSDSYSNYNQKFKDKATLTVDKSSSTAYMQLSSLTSEDSAVYYCARNGGLGPAWFSYWGQGTLVTVSA
VL: DIVMTQSQKFMSTTVGDRVSITCKASQYVGTAVAWYQQKPGQSPKLLIYSASNRYTGVPDRFTDSGSGTDFTLTISNLQSEDLADYFCQQYSSYPWTFGGGTKLEIKT
notes: as for B1
B5: LFA102 (antibody, human IgG1, kappa, V domains shown)
VH: EVQLVESGGGLVQPGGSLRLSCAVSGFTFSSYGMSWVRQAPGKRLEWVATVSSGGTYTYYPDSVKGRFTISRDNSKNTLYLQMNSLRAEDTAMYYCARHRGNYYATYYYAMDYWGQGTLVTVSS
VL: DIVLTQSPDSLAVSLGERATINCKASKSVSTSGYTYMHWYQQKPGQPPKLLIYLASNRESGVPDRFSGSGSGTDFTLTISPVQAEDVATYYCQHSGELPPSFGQGTKLEIKR
notes: humanized IgG1 kappa comparator (WO 2008022295)

These binders were tested against T1, cyno PRLR (Biacore antigen) (assay: SPR Biacore).
In short: (§1)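 Association rate, dissociation rate and dissociation constant were measured by surface plasmon resonance on a Biacore instrument. PRLR antigen was tested at 600 nM, 66.67 nM and 7.41 nM, a 3-point, 9-fold dilution series. Constants came from a 1:1 binding model fit (local Rmax, mass-transport term included) in Biacore T200 Evaluation Software.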
With B1 the Kd was 3.44 nM, the koff was 0.00177 s⁻¹ and the kon was 514000 M⁻¹ s⁻¹.
B2 showed a Kd of 0.671 nM, a koff of 0.000223 s⁻¹ and a kon of 333000 M⁻¹ s⁻¹.
B3 was tested, and the Kd was 0.154 nM, the koff was 3.61e-05 s⁻¹ and the kon was 235000 M⁻¹ s⁻¹.
With B4 the Kd was 0.794 nM, the koff was 0.00103 s⁻¹ and the kon was 1.3e+06 M⁻¹ s⁻¹.
B5 gave a Kd of 11 nM, a koff of 0.0095 s⁻¹ and a kon of 880000 M⁻¹ s⁻¹.

Each binder was assayed against T2, murine PRLR (Biacore antigen) (assay: SPR Biacore).
In short: as §1
Work on B1 yielded a Kd of 291 nM, a koff of 0.0538 s⁻¹ and a kon of 185000 M⁻¹ s⁻¹.
Binder B2 has a Kd of 13.8 nM, a koff of 0.00277 s⁻¹ and a kon of 200000 M⁻¹ s⁻¹.
B3 gave a Kd of 44.9 nM, a koff of 0.00357 s⁻¹ and a kon of 79500 M⁻¹ s⁻¹.
B4 was tested, and the Kd was 608 nM, the koff was 0.36 s⁻¹ and the kon was 591000 M⁻¹ s⁻¹.
B5 was tested, and the Kd was 26 nM, the koff was 0.016 s⁻¹ and the kon was 620000 M⁻¹ s⁻¹.

The binders below were run against T3, human PRLR (Biacore antigen) (assay: SPR Biacore).
In short: as §1
Binder B1 has a Kd of 0.183 nM, a koff of 9.1e-05 s⁻¹ and a kon of 496000 M⁻¹ s⁻¹.
In the case of B2, the Kd is reported as 0.558 nM, the koff is reported as 0.000199 s⁻¹ and the kon is reported as 356000 M⁻¹ s⁻¹.
With B3 the Kd was 0.18 nM, the koff was 4.46e-05 s⁻¹ and the kon was 248000 M⁻¹ s⁻¹.
Binder B4 has a Kd of 0.469 nM, a koff of 0.000536 s⁻¹ and a kon of 1.14e+06 M⁻¹ s⁻¹.
B5 gave a Kd of 1.3 nM, a koff of 0.00073 s⁻¹ and a kon of 560000 M⁻¹ s⁻¹.

What follows are binders tested against T3, human PRLR (Biacore antigen) (assay: SPR simultaneous binding; PRLR held by surface mAb Ab19).
Description: (§2) Running buffer was HBS-EP+ (10 mM Hepes, pH7.4, 150 mM NaCl, 3 mM EDTA, 0.05% surfactant). Assay was performed at 12° C. using Biacore T200 and CM5 sensor chips with anti-human IgG (Pierce) amine-coupled in all 4 flow cells to ˜2000 RU.
(§3) Separate test mAbs were captured in flowcells 2, 3 & 4 (flowcell 1 was reference, no test mAb). All 4 flowcells were then blocked by injection with isotype control mAb at 50 ug/ml. All 4 flowcells were then injected with antigen or buffer only (buffer only is for double referencing, done for each mAb pair individually). All 4 flowcells were then injected with 2nd test mAb at 10 ug/ml. All 4 flowcells were then regenerated with glycine, pH1.5.
In the case of B1, the “solution mAb binding, % of PRLR binding” value is reported as -1%.
B2 was tested, and the “solution mAb binding, % of PRLR binding” value was 0%.
With B3 the “solution mAb binding, % of PRLR binding” value was -1%.
For B4, the “solution mAb binding, % of PRLR binding” value was -1%.
B5 was tested, and the “solution mAb binding, % of PRLR binding” value was 19%.

Each binder was assayed against T3, human PRLR (Biacore antigen) (assay: SPR simultaneous binding; PRLR held by surface mAb Ab21).
Description: as §2, §3
B1 was tested, and the “solution mAb binding, % of PRLR binding” value was -1%.
With B2 the “solution mAb binding, % of PRLR binding” value was -1%.
For B3, the “solution mAb binding, % of PRLR binding” value was -1%.
In the case of B4, the “solution mAb binding, % of PRLR binding” value is reported as -1%.
B5 was tested, and the “solution mAb binding, % of PRLR binding” value was 21%.

Each binder was assayed against T3, human PRLR (Biacore antigen) (assay: SPR simultaneous binding; PRLR held by surface mAb Ab30).
Description: as §2, §3
B1 was tested, and the “solution mAb binding, % of PRLR binding” value was -1%.
In the case of B2, the “solution mAb binding, % of PRLR binding” value is reported as -1%.
With B3 the “solution mAb binding, % of PRLR binding” value was -1%.
B4 was tested, and the “solution mAb binding, % of PRLR binding” value was -1%.
With B5 the “solution mAb binding, % of PRLR binding” value was 35%.

What follows are binders tested against T3, human PRLR (Biacore antigen) (assay: SPR simultaneous binding; PRLR held by surface mAb Ab40).
Description: as §2, §3
With B1 the “solution mAb binding, % of PRLR binding” value was -2%.
For B2, the “solution mAb binding, % of PRLR binding” value was -2%.
For B3, the “solution mAb binding, % of PRLR binding” value was -2%.
B4 was tested, and the “solution mAb binding, % of PRLR binding” value was -2%.
In the case of B5, the “solution mAb binding, % of PRLR binding” value is reported as 40%.

What follows are binders tested against T3, human PRLR (Biacore antigen) (assay: SPR simultaneous binding; PRLR held by surface mAb Ab48).
Description: as §2, §3
In the case of B1, the “solution mAb binding, % of PRLR binding” value is reported as -1%.
B2 was tested, and the “solution mAb binding, % of PRLR binding” value was 8%.
With B3 the “solution mAb binding, % of PRLR binding” value was 1%.
For B4, the “solution mAb binding, % of PRLR binding” value was 0%.
In the case of B5, the “solution mAb binding, % of PRLR binding” value is reported as -1%.

These binders were tested against T3, human PRLR (Biacore antigen) (assay: SPR simultaneous binding; PRLR held by surface mAb Ab49).
Description: as §2, §3
For B1, the “solution mAb binding, % of PRLR binding” value was -1%.
For B2, the “solution mAb binding, % of PRLR binding” value was 7%.
B3 was tested, and the “solution mAb binding, % of PRLR binding” value was 2%.
B4 was tested, and the “solution mAb binding, % of PRLR binding” value was 0%.
B5 was tested, and the “solution mAb binding, % of PRLR binding” value was 1%.

The binders below were run against T3, human PRLR (Biacore antigen) (assay: SPR simultaneous binding; PRLR held by surface mAb chAb5).
Description: as §2, §3
In the case of B1, the “solution mAb binding, % of PRLR binding” value is reported as 0%.
For B2, the “solution mAb binding, % of PRLR binding” value was 0%.
For B3, the “solution mAb binding, % of PRLR binding” value was -1%.
B4 was tested, and the “solution mAb binding, % of PRLR binding” value was 0%.
B5 was tested, and the “solution mAb binding, % of PRLR binding” value was 32%.

What follows are binders tested against T3, human PRLR (Biacore antigen) (assay: SPR simultaneous binding; PRLR held by surface mAb chAb6).
Description: as §2, §3
For B1, the “solution mAb binding, % of PRLR binding” value was -1%.
In the case of B2, the “solution mAb binding, % of PRLR binding” value is reported as -1%.
For B3, the “solution mAb binding, % of PRLR binding” value was -1%.
With B4 the “solution mAb binding, % of PRLR binding” value was -1%.
In the case of B5, the “solution mAb binding, % of PRLR binding” value is reported as 26%.

The binders below were run against T3, human PRLR (Biacore antigen) (assay: SPR simultaneous binding; PRLR held by surface mAb chAb7).
Description: as §2, §3
With B1 the “solution mAb binding, % of PRLR binding” value was 0%.
In the case of B2, the “solution mAb binding, % of PRLR binding” value is reported as 0%.
With B3 the “solution mAb binding, % of PRLR binding” value was 0%.
With B4 the “solution mAb binding, % of PRLR binding” value was 1%.
With B5 the “solution mAb binding, % of PRLR binding” value was 39%.
